Molecular target: the molecule itself
Test: native gel or EMSA; ATP-bound tmaDnaA on a 30 bp DNA (300 nM) with the oppositely oriented tmaDnaA boxes 2 and 3; complexes with one (C1) or two (C2) tmaDnaA molecules; 8% polyacrylamide gel, GelStar staining; self-interaction read from the preference for C2 on DNA

B1: Thermotoga maritima DnaA initiator (tmaDnaA), wildtype (natural protein, UniProt P46798 1-440, looked up)
chain: MKERILQEIKTRVNRKSWELWFSSFDVKSIEGNKVVFSVGNLFIKEWLEKKYYSVLSKAVKVVLGNDATFEITYEAFEPHSSYSEPLVKKRAVLLTPLNPDYTFENFVVGPGNSFAYHAALEVAKHPGRYNPLFIYGGVGLGKTHLLQSIGNYVVQNEPDLRVMYITSEKFLNDLVDSMKEGKLNEFREKYRKKVDILLIDDVQFLIGKTGVQTELFHTFNELHDSGKQIVICSDREPQKLSEFQDRLVSRFQMGLVAKLEPPDEETRKSIARKMLEIEHGELPEEVLNFVAENVDDNLRRLRGAIIKLLVYKETTGKEVDLKEAILLLKDFIKPNRVKAMDPIDELIEIVAKVTGVPREEILSNSRNVKALTARRIGMYVAKNYLKSSLRTIAEKFNRSHPVVVDSVKKVKDSLLKGNKQLKALIDEVIGEISRRALSG
notes: DnaA chromosomal replication initiator protein of Thermotoga maritima (tmaDnaA); also called WT tmaDnaA; ATP-tmaDnaA; source: purified as described previously (40); plasmid pTHMA-1
  binding result: binds
